Data published in the NTF2 design screens of Basanta et al. (2020).

Experiment: protease stability score; higher = more stable; yeast display proteolysis, trypsin and chymotrypsin;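 further: log10 excess protease needed over predicted unfolded state with 0 meaning unfolded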

Sequence | protease stability score
DHELVEQLHRFWTAVDENDPDKLKENADPNAHFVIGDKTYRGREDFARTIERELDTMEMRFDTMTVTIHNGRLDAKFRYVVRHNGNPQQHKVDAKAEMSNGKIQRLNMQKRP | -0.197
DERKQENVAKRVIRALQTGDSDMMERLVDPNAEVRYGDKRLRGREELREFVTTFKRAVDHLSFDRFEVHNGRAVANAKLNVNGRVMHVRIIVNFHDGRVTHIQIDVTDESQATRARS | 0.643
DEDEVRKAKKYIENWEQGNPKDLQEQADENASAQYGDKRIHGMTKIAKFVHKEHEESRVEIQDVQIEAHNGTVHIEIRAIFDHNGKPSQKKVFMSMTMHNGKVKDAELHSDK | 0.155
DEDVQKIAETFWRVLKQGNEDDARRLIDPNARINVGNKNYHGREQIAEIIKKKKEEIRFSIDDVKVRVHNGELTASIDFKVNVNGRPDSIHVEFRMVVHNGKIVQIQMQVDEDWMKELES | 0.788
DEEKDEDFARKVLQAVQTGDHDKIKKMADPNASATIGDKTWHGREQLSEAIRRWKEEADRVDVKSVSVQGDRASADMKVQHNGKMTDVRVFVEASNGRLKKLEIDTK | 1.16
DEEKVAKRFLDNWVRALHHNNEKQFKKMLPPDARVEIGDKTYNGREQVVTFFAEWAKQFDHISLDLKDMRVHNGTMDIDVKVVANDNGKNEHMRVVYVIEIKGDEATFRSATHK | 1.87
DEDREKRFAKHVADVLRTGDSDRLQELADENVRMRIGDKTYKGRENFTKALEELRNRVDHIDIKSVKVHNGRISIDFVMRHNGREQTAVLIMHIHNGRIESQEVHSK | 0.618
DEHAMERIDDFFQALRNGDPKNLKEQIDPNVSLHYGDKEVTGKDRAAKEMAQIFRHIRLEFDIKSVSAHNGRVTVNAEVVDEENGRPHSRRVQNNAVWHNGVIQSFHVKETK | -0.402
DETLFELIQRLIEAYKHGNPDELKKQADPNARVKVGDKELHGMEEIAKELVTQRKQQRLSYLSINNDDDPNHARVRFNVEVERNGQPRTKRFELRAETHNGRLISMEVQSRR | 0.232
DEDKMKSILTVAQEGDPDEMKRQADEDARVHIGDKRVHGRESFQKAMDEYTKAVDSQHVKRVSSRENRVKVTAVLRFNGSHIDVVVQIRAHNGRIEEIIFRVTDPKQKTTLKKIIS | 0.053
EQELRKKATEMLKVVQEGDEDRLVEYADPNVRVQVGDKVLHGQEDLRKFVQRLTKESRIHLKHVDIEVHGNKIDITVEADVEHNGRPSTDTFSMRVEMENGRAKFIQVRTSK | 1.39
DEEELTKTLHEIIKDFVHGDSNQLRENADPNVKLKVGDKEIRGHHEVHKWAKKLRERVDSIKVKDYSATGEKAVAHVIADINGENVEITIVIQAHNGRIKLITVDPEDDKKMKQ | 0.279
DEKRYTEIAEKVFKYARNGNEEEMRKDGMPDLKYKYIDKEYEGEDAMRFVVELVKKIGAEDRQEKQEVKGNTAEAVFVYHNGDETVTTKAQVHYEGDKVKEVRVELTDEVKKVIKKG | 0.135
DEDAYRKLDTFKKVEEKGDTDRLRKLADPNVEIQVGDRQIRGMHHFAKDVHDKKRHIDIDVHIDEYDVDGNKIQIHAHNKQHVNGKPFNFTVVMWVRIHNGSIKKMKYRIDPDQLRKIRR | 0.227
DQEQAEETQKKWQEVVEKGDEKKAKKIYDPNGQWQDADETHQGYEIVIKMMRRAQKKGIEFQVRRAEVEGDRLQVDYDMRLGDKTVTFTVQMEVQGGHVKVVRVEVTEEAKKLLKEG | 1.11
DERKLATRHAHTLDRILRTGDEERYVDMADKDVKFDVGDRKYKGRHELHKLAKEEQKKADHLQLNYKHITAHNGRVDMDVVVVQVHNGQKRQTNVRYSEEIHNGNVIVQSATEK | -0.355
DEEEVEEMVDQALTAIRTGDEDTFAHQFDENARMEVGDTTLHGRDEIRKEMKKFRDRADHIRIQDYKVKGNKIVIVFVARFDGRHAQITIVWVFSNGRVKHASINPNQVQEFRK | 0.279
DEKKLHELLLKMVQYYVSGHTEKVKEMGKDDVNLNAGDYTYHGVEQVATVADRMRQYGVKLEVKNRRQEGDRLEVEVEFHVGGQTVTVTFKVKADGGKVDEMRIDFSEEADKMARKG | -0.157
DEKELQKVLQKVMKLFQNGNIEELQKVVKDDVQLRYADKEYHGPDAVKTVVKRYRDLGAKVEYDELHVEGDKATAKVRADYGGTTVRMKVTYKVTGQKVDRMQVKYDEKAQKQIKHG | -0.142
DEELSKRAKHLIEMMKTGDEKEIQKQMDKDVKIDIGDKTIKGREDAAEQWRNRVEKIRWSLTIRHVNVQGNHVTMNVEVHLNVNGQPNRYTIEISFTFHNGKIVYISVSFDEDTEEKAKK | 1.18
DEKQLKHVQEWVETGDPDQFARNADPNAEIQIGNTTWQGREEIQKLAHRLKKQVDTQELKDIQVHGDHVLVNRVMEWDGHTFEFSMHIKVQNGRIKSVDVKVRDPSQQKELEDHLS | -0.087
DEKAMDKVRKVKEIEDEGDSDEFNKMFDPNARFNVGDKSVHGMETYVDQLSKELKRLKRSVRIKSMHAEGNRVDMTVKYEVDVNGRPYRAQVHIIYTFHNGHFSHVTYRLDPQSQREFQK | 0.017
DKDAQKKATEFLTAWEQGNESQLQKLMDPNAKVEIGDKVIDGREDWNRWIRERLKRMRFEIKSVDVQVHGDNVDINIDARVNHNGKPDRMTAKFVMRVHNGRIKSMTQHNDK | 1.29
DDDTDRKVAEDAWRAFEKGDHKRLIELMDKDAEVQVGNRRVSGREKAAHEMVRMVERADHISVKSIDIRGDKATIKFQVNVNGHNQEAKVVFRVQNGRVQEVKFDPTMEKALRT | 1.39
DEDKEQELAHHIISIIQTGNPDSFMNMADPNAKVNIGDTRLRGREQIVHFYREQFRQADNREVKDVRAHNGRITIDAVRNINGRNERYVVDIQIENGKATEINVRHT | 0.045

Sequence | protease stability score
DEREKEHVEEFLRNWEEGNQDNLMRLADPNVRLQIGDHEIHGREQLAKHVDDERKQMRVSMQIKSVDAHNGRIHIQAERESQHDGNPTKESLVITFVLRNGRIQEVSYKRQQ | 0.959
DEDHLKDANRRVVHALEHGDPDEFMNMADKDVQIEIGDTVVEGSHKLKEWAEDLHNRVDHIEILKVDLQGDTLNLNVRMRSNGHNRNAVLHVRVHNGKIQSLRMKDN | 0.55
DEEFLRLIEEFWRAVKQNDEERLKHLLDENAKVKVGDKRLRGHEQVAKSIVDDQREMRIEMRIHKVEVDGNKVDVTYVVVFNVNGRPVSDSVRVIFRAKNGRIQMIEVRVDPDSAREQKS | 1.37
DKQDLDKLRELWEDELNGDHRSLREQVDPNAKVEIGDKEIHGRDDFAKDAKRRKEEIRVEMRVKSLSASGDTIDAKVHLDFKVNGKPIRLTVHMHVKVENGKFVDLNVRIDERQVRKIRK | 0.089
DDDQLDRNATQMMEALQTGDEQTLNNLVDPDVRFHIGDKVVHGRDQWNEQVKKIRDRADRIHIKHVEAQGDKVRMEFVLNINGRNIRVRMEAEVHNGRFKVITFDPEQVKEMRK | 1.19
DEHRRAEEAAKRAMEIWKTGNERDAEDLADKNVSIDYGDKKYHGRHQIIKFFQELREDVDHVDLKVNDMDVKPGRAVANLRYVLNNDGRNRHDQHRMTLKLEGDKVYLKKIQQG | -0.108
DEEVNHQMSRMWEANKRGDEHTLRELVDPNAKIDVGDKRVHGMEEYVKQVRNRREDLRWRFKIDHMSVDGDTVKFRARAVENENGRPQSYKFEQNVRVHNGKLTEQNQQDHG | 0.181
DEEAVKKMMEEWHKALESKNDDQFRKIYKPNVEWVNGDTKRQGQEDVVKMLQKVQKDGAEFQVRDAKVEGDRARMVYDLNVGDKTATFTVEMDAEGGRVDRVQVEIDEKAKKVLTEG | 0.294
DEKKLLDLARVALEYLQRGNSDQFAKMLDEGGQMNVGDTQINGSDQVKKYVKKFKDQGVHVEYKEQEEKGDTVTVKTEAELGDAKVTFEVHYVAKGDRVERVEVRMNKEQITEFKKS | 0.272
DEQNLQDAAQRVDEVLRKGNEEDVTKMMDKDATMTVGDKVIHGRSKVRQQVRRLHEQVDHQEVEYVTAHNGRIKINMQADVNGQSLTFTVHIKVRNGRVKEIQIDPDYKRNLDR | -0.224
EEDILKRVKHMLKQLETGNEKEYEKNIDPNVKIKVGDKEIRGREEASRYWHRLRHHMRIRVDVKSMNVKNGQVNMNATVTVDVNGRPVRFEFRMVIHATNGTIKEVTLQVDPDQIRKQLG | 1.61
DEDLRRQAETMVDNINTNNERELEKLFDPNVHVVVGDRRINGTEHLRDYWRRIRDHMRLEVNLRRISVHNGKISAHVDVVREHNGKPDEDTFRMSAVVRNGKFHKMRVEKDG | 1.37
DDEKKARTLLKQLKEAFENNDEDRARQLMDKDVRLDIGDKTYHGREEAAEAWHRLVETVDHMDMKVRHIENRNGHMVVNADMVLHRDGRQKRLKVTFTARDDNGHAVLVHVSFD | 1.45
EEHLQERLTKLNEAEQKGDPKKILEQVDPNARVEVGDKTYHGMDRYARRVAKEMNEMRVEVHIKDLKVRGNNIHAEMSATHTKNGKPSHNEFTLVVVWNNGRVTSIVVTHKS | 0.717
EEKAEELVERFITAIETNDPDEVVNNIDPNARLRVGDKHVSGRDHQRQQVEEQERHMRVKYQHVRIDVTGDHARVHVVQVDNHNGKPRRFKYSASFVVQGDKIKHASQTTTE | -0.163
DEHARRLVKKFIEAMKHGDPDKLMKLADPNVKFDIGDHQFKGSHEANKWLERMVRHMRFSLKVDSVKAHNGRVEVDAVFTFEVNGKPDQQRFTLDFHFNNGRVQNLTWDVDPRDWRKQLK | 0.73
DHTAARIAKEIMENQDKGDEDRLRKLLDKDVRLKYGDKEIHGREHAARTLKRERRQIRIDRRIRHVEIQGDEVSIEFDMHVQHNGKPRDRKAVMVFRMQGDKLEEMTQDNTK | 0.191
DDEKRKDILRKIKENWKRNDHDFFKDMADPNVRAKVGDKLLHGREELEKELREFKKRADHVEIKHVDVTGDNAEVEADIDINGQKRVMVFQVEVHNGKIKHIELDPDDQRKVQK | 0.145
DEEEAHKFQEAVERNDFEKFVRNADPNAHVQVGDQHIDGHDKMRKQYHDLKRAADKIEYKSIDVQGDKIDVKFTVRFNGREYEVHMQIEVHNGRLKTVKYDATSEHNRTILQEMMS | -0.032
DREVIKLAKRMITALQKGDHQKFVNLLDPNVRIDVGDKEVHGQEEAQERLREETRQIRVDNHVKTIDDNNGRANFKMSVNAQVNGKPVHYEVNAVVHAHNGKARRLHIKVPEEDKRHLDR | 0.034
DEENHRRATELLRAWKTGDEEELKRQMPPDVHIRVGDQEVHGREQAVKHLAQRRREASFRFKIKEYELQGEKIRIVARAEVHHNGEPQRYVVRLVILYRNGQAEEINQQEDG | 1.25
EEEKLKKVAEEVFRMVQNGNYDQLAKLGKDNAEFQFADHRLKGKEQYKKYLEELVKRGVQFEVKKAQLKDNTVTMVTKAKYADTEATVTVQAKYEGGKLDRARVKLSEEVKKVLKKG | 0.065
DDKDLRRVADVMETNDPDRLADLVDENARFIYGDKTYKGEKEATKVWETLYHQVDHKQIHTWDVRGDKLSVKMEMVVNGHDIQVHVRVDVRNGRIKQVELRATNEDDQRFIKRIWG | 0.218
DEDKNKKRAEEWQRILEDNDEERFSKLADKDVRFVIGDKEVHGSEQAETWIRTIKHRVDHIQLEDMKVNGNKIVIDLVMVHNGRKHRYKVVMEFHNGSVKYVQYNDS | -0.06
EDRAQENLHELLKAIQQGDEDSVESLLDKDVKIQVGDKYIHGRENYAEHVRKTRQEIRVNYRIESYSVHNGRAKMTFRANRDDNGKPETWKAQATMEVDNGRITFIHRNKRG | -0.045
